Patent publication US20230075753A1 (UCB, published 2023)

T1: Active cyno KLK5 (cynomolgus monkey, UniProt Q9Y337 67-293 (human entry))
T1 chain: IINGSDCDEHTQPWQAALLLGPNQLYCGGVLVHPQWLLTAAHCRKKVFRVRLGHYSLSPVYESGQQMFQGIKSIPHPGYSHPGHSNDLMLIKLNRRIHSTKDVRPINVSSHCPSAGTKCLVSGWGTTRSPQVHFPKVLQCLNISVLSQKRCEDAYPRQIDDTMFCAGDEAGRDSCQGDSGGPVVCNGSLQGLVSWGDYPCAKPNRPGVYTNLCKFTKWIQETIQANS


How the values were obtained:
Active human KLK5 [1] = molecular target: T2, Active human KLK5 (human, UniProt Q9Y337 67-293); assay: SPR, Biacore T200, 25 C; IgG from supernatant captured on anti-human Fc, human KLK5 as analyte (20-0.08 nM), 1:1 model
T2 construct: glycosylated; also called Hu KLK5; KLK5 analyte (prepared in house)
Description: (§1) A goat anti-human IgG Fc specific antibody (Jackson ImmunoResearch) was immobilized on a CM5 Sensor Chip via amine coupling chemistry to a level of approximately 6000RU. Each analysis cycle consisted of capture of the anti-KLK5 IgG from supernatants to the anti Fc surface, injection of KLK5 analyte (prepared in house) for 180 s at 30 μl/min followed by 600 s dissociation. At the end of each cycle the surface was regenerated at a flowrate of 10 μL/min using a 60 s injection of 50 mM HCl followed by a 30 s injection of 5 mM NaOH and a final 60 s injection of 50 mM HCl. Human KLK5 was titrated from 20 nM to 0.08 nM (5×3-fold serial dilutions) for the supernatant in HBS-EP+ running buffer (GE Healthcare®) supplemented to a final concentration of 300 mM NaCl. Buffer blank injections were included to subtract instrument noise and drift. Kinetic parameters were determined using a 1:1 binding model using Biacore T200 Evaluation software (version 3.0). Experiments were carried out at 25° C.

Active cyno KLK5 = molecular target: T1, Active cyno KLK5; assay: cell-based or functional assay
Active human KLK5 [2] = molecular target: T2, Active human KLK5; assay: cell-based or functional assay
Active human KLK5 [3] = molecular target: T2, Active human KLK5; assay: SPR, Biacore T200, 25 C; mIgG captured on anti-mouse Fc, human KLK5 as analyte (20-0.25 nM), 1:1 model
Description: The kinetics of murine IgG molecules binding to human KLK5 were assessed by surface plasmon resonance (Biacore T200, (GE Life Sciences™) at 25° C.
Kinetic parameters were determined using a 1:1 binding model using Biacore T200 Evaluation software.

Active human KLK5 [4] = molecular target: T2, Active human KLK5; assay: SPR; repeats Table 3 (footnote: as described in example 4 and Table 3)
Active human KLK5 [5] = molecular target: T2, Active human KLK5; assay: SPR, Biacore T200, 25 C; IgG from supernatant captured on anti-human Fc, human KLK5 as analyte (20-0.08 nM), 1:1 model; run at the start or end of the assay
Description: as §1

Active human KLK5 [6] = molecular target: T2, Active human KLK5; assay: SPR, Biacore T200, 25 C; IgG from supernatant captured on anti-human Fc, human KLK5 as analyte (20-0.08 nM), 1:1 model; second run of the chimera; second run of the chimera (start and end of the assay)
Description: as §1

Kd (Active human KLK5 [1]) [nM] | koff (Active human KLK5 [1]) [s⁻¹] | kon (Active human KLK5 [1]) [M⁻¹ s⁻¹] | Binder | other results
0.475 | 0.00091 | 1.91e+06 | Humanized antibody 10236 gL6 gH9 (antibody, V domains shown, Tested as IgG from supernatant captured by anti-human Fc) VH: EVQLQESGPGLVKPSGTLSLTCAVSGFPLSNYAMSWVRQPPGKGLEWIGDIYPSDIIDYASWAKGRVTISQDSSKTQVSLKLSSVTAADTAVYYCARDNNDYGLDIWGQGTLVTVSS VL: AYDMTQSPSSLSASVGDRVTITCQASQSISSWLAWYQQKPGKAPKLLIYLASTLASGVPSRFSGSGSGTDFTLTISSLQPEDFATYYCQQGYTNSNIINTFGGGTKVEIKR | –
0.484 | 0.000929 | 1.92e+06 | Humanized antibody 10236 gL5 gH9 (antibody, V domains shown, Tested as IgG from supernatant captured by anti-human Fc) VH: EVQLQESGPGLVKPSGTLSLTCAVSGFPLSNYAMSWVRQPPGKGLEWIGDIYPSDIIDYASWAKGRVTISQDSSKTQVSLKLSSVTAADTAVYYCARDNNDYGLDIWGQGTLVTVSS VL: AYDMTQSPSSLSASVGDRVTITCQASQSISSWLAWYQQKPGKAPKLLIYLASTLASGVPSRFKGSGSGTDFTLTISSLQPEDFATYYCQQGYTNSNIINTFGGGTKVEIKR | –
0.541 | 0.00105 | 1.93e+06 | Humanized antibody 10236 gL6 gH10 (antibody, V domains shown, Tested as IgG from supernatant captured by anti-human Fc) VH: EVQLQESGPGLVKPSGTLSLTCAVSGFPLSNYAMSWVRQPPGKGLEWIGDIYPSDIIDYASWAKGRVTISVDSSKTQVSLKLSSVTAADTAVYYCARDNNDYGLDIWGQGTLVTVSS VL: AYDMTQSPSSLSASVGDRVTITCQASQSISSWLAWYQQKPGKAPKLLIYLASTLASGVPSRFSGSGSGTDFTLTISSLQPEDFATYYCQQGYTNSNIINTFGGGTKVEIKR | –
0.546 | 0.00107 | 1.97e+06 | Humanized antibody 10236 gL5 gH10 (antibody, V domains shown, Tested as IgG from supernatant captured by anti-human Fc) VH: EVQLQESGPGLVKPSGTLSLTCAVSGFPLSNYAMSWVRQPPGKGLEWIGDIYPSDIIDYASWAKGRVTISVDSSKTQVSLKLSSVTAADTAVYYCARDNNDYGLDIWGQGTLVTVSS VL: AYDMTQSPSSLSASVGDRVTITCQASQSISSWLAWYQQKPGKAPKLLIYLASTLASGVPSRFKGSGSGTDFTLTISSLQPEDFATYYCQQGYTNSNIINTFGGGTKVEIKR | –
0.333 | 0.000669 | 2.01e+06 | Humanized antibody 10236 gL6 Q24R gH12 (antibody, V domains shown) VH: EVQLQESGPGLVKPSGTLSLTCAVSGFPLSNYAMSWVRQPPGKGLEWIGDIYPSDIIDYASWAKGRVTISQDSSKNQVSLKLSSVTAADTAVYYCARDNNDYGLDIWGQGTLVTVSS VL: AYDMTQSPSSLSASVGDRVTITCRASQSISSWLAWYQQKPGKAPKLLIYLASTLASGVPSRFSGSGSGTDFTLTISSLQPEDFATYYCQQGYTNSNIINTFGGGTKVEIKR | –
0.337 | 0.000687 | 2.04e+06 | Humanized antibody 10236 gL6 Q24K gH12 (antibody, V domains shown) VH: EVQLQESGPGLVKPSGTLSLTCAVSGFPLSNYAMSWVRQPPGKGLEWIGDIYPSDIIDYASWAKGRVTISQDSSKNQVSLKLSSVTAADTAVYYCARDNNDYGLDIWGQGTLVTVSS VL: AYDMTQSPSSLSASVGDRVTITCKASQSISSWLAWYQQKPGKAPKLLIYLASTLASGVPSRFSGSGSGTDFTLTISSLQPEDFATYYCQQGYTNSNIINTFGGGTKVEIKR | –
0.481 | 0.000811 | 1.69e+06 | Humanized antibody 10236 gL5 gH11 (antibody, V domains shown, Tested as IgG from supernatant captured by anti-human Fc) VH: EVQLQESGPGLVKPSGTLSLTCAVSGFPLSNYAMSWVRQPPGKGLEWIGDIYPSDIIDYASWAKGRVTISQDKSKTQVSLKLSSVTAADTAVYYCARDNNDYGLDIWGQGTLVTVSS VL: AYDMTQSPSSLSASVGDRVTITCQASQSISSWLAWYQQKPGKAPKLLIYLASTLASGVPSRFKGSGSGTDFTLTISSLQPEDFATYYCQQGYTNSNIINTFGGGTKVEIKR | –
0.475 | 0.000802 | 1.69e+06 | Humanized antibody 10236 gL6 gH11 (antibody, V domains shown, Tested as IgG from supernatant captured by anti-human Fc) VH: EVQLQESGPGLVKPSGTLSLTCAVSGFPLSNYAMSWVRQPPGKGLEWIGDIYPSDIIDYASWAKGRVTISQDKSKTQVSLKLSSVTAADTAVYYCARDNNDYGLDIWGQGTLVTVSS VL: AYDMTQSPSSLSASVGDRVTITCQASQSISSWLAWYQQKPGKAPKLLIYLASTLASGVPSRFSGSGSGTDFTLTISSLQPEDFATYYCQQGYTNSNIINTFGGGTKVEIKR | –
0.331 | 0.000669 | 2.03e+06 | Humanized antibody 10236 gL5 gH12 (antibody, V domains shown, Tested as IgG from supernatant captured by anti-human Fc) VH: EVQLQESGPGLVKPSGTLSLTCAVSGFPLSNYAMSWVRQPPGKGLEWIGDIYPSDIIDYASWAKGRVTISQDSSKNQVSLKLSSVTAADTAVYYCARDNNDYGLDIWGQGTLVTVSS VL: AYDMTQSPSSLSASVGDRVTITCQASQSISSWLAWYQQKPGKAPKLLIYLASTLASGVPSRFKGSGSGTDFTLTISSLQPEDFATYYCQQGYTNSNIINTFGGGTKVEIKR | –
– | – | – | Rabbit antibody 10236 (rabbit IgG) (antibody, V domains shown) VL: AYDMTQTPASVEVAVGGTVTIKCQASQSISSWLAWYQQKPGQPPKLLIYLASTLASGVSSRFKGSGSGTQFTLTISGVECADAATYYCQQGYTNSNIINTFGGGTEVVVK VH: QSVEESGGRLVTPGTPLTLTCTVSGFPLSNYAMSWVRQAPGKGLEWIGDIYPSDIIDYASWAKGRFTISQTSTTVELKITGPTTEDTATYFCARDNNDYGLDIWGPGTLVTVSS | IC50 (M), inhibition of kallikrein protease activity (fluorogenic peptide substrate) (Active cyno KLK5): 2.76e-11 M; IC50 (M), inhibition of kallikrein protease activity (fluorogenic peptide substrate) (Active human KLK5 [2]): 1.74e-10 M
– | – | – | Rabbit antibody 10273 mIgG (rabbit variable regions on mouse constant regions) (antibody, V domains shown) VH: QSVEESGGRLVTPGTPLTLTCTVSGFSLSSYGMSWVRQAPGKGLEWIGIISSSGSTYYASWAKGRFTISKTSTTVDLKIASPTTEDTATYFCARDHIYRYDDYGDYPTYYGMDPWGPGTLVTVSS VL: AVVLTQTPSPMSAAVGGTVTISCQSSQSVYNNNDLAWYQQKPGQPPKLLIYRASTLASGVPSRFSGSGSGTQFTLTISGVQCDDAATYYCLGGYDDDVDTYTFGGGTEVVVKR | IC50 (M), inhibition of kallikrein protease activity (fluorogenic peptide substrate) (Active cyno KLK5): 3.01e-10 M; IC50 (M), inhibition of kallikrein protease activity (fluorogenic peptide substrate) (Active human KLK5 [2]): 3.48e-11 M; Kd (Active human KLK5 [3]): 0.16 nM; koff (Active human KLK5 [3]): 0.000184 s⁻¹; kon (Active human KLK5 [3]): 1.14e+06 M⁻¹ s⁻¹
– | – | – | Rabbit antibody 10236 mIgG (rabbit variable regions on mouse constant regions) (antibody) light: AYDMTQTPASVEVAVGGTVTIKCQASQSISSWLAWYQQKPGQPPKLLIYLASTLASGVSSRFKGSGSGTQFTLTISGVECADAATYYCQQGYTNSNIINTFGGGTEVVVKRTDAAPTVSIFPPSSEQLTSGGASVVCFLNNFYPKDINVKWKIDGSERQNGVLNSWTDQDSKDCTYSMSSTLTLTKDEYERHNSYTCEATHKTSTSPIVKSFNRNEC heavy: QSVEESGGRLVTPGTPLTLTCTVSGFPLSNYAMSWVRQAPGKGLEWIGDIYPSDIIDYASWAKGRFTISQTSTTVELKITGPTTEDTATYFCARDNNDYGLDIWGPGTLVTVSSAKTTPPSVYPLAPGSAAQTNSMVTLGCLVKGYFPEPVTVTWNSGSLSSGVHTFPAVLQSDLYTLSSSVTVPSSTWPSETVTCNVAHPASSTKVDKKIVPRDCGCKPCICTVPEVSSVFIFPPKPKDVLTITLTPKVTCVVVDISKDDPEVQFSWFVDDVEVHTAQTQPREEQFNSTFRSVSELPIMHQDWLNGKEFKCRVNSAAFPAPIEKTISKTKGRPKAPQVYTIPPPKEQMAKDKVSLTCMITDFFPEDITVEWQWNGQPAENYKNTQPIMDTDGSYFVYSKLNVQKSNWEAGNTFTCSVLHEGLHNHHTEKSLSHSPGK | Kd (Active human KLK5 [4]): 0.172 nM; koff (Active human KLK5 [4]): 0.000517 s⁻¹; kon (Active human KLK5 [4]): 3e+06 M⁻¹ s⁻¹; IC50 (M), inhibition of kallikrein protease activity (fluorogenic peptide substrate) (Active cyno KLK5): 3.3e-11 M; IC50 (M), inhibition of kallikrein protease activity (fluorogenic peptide substrate) (Active human KLK5 [2]): 2.4e-10 M; Kd (Active human KLK5 [3]): 0.172 nM; koff (Active human KLK5 [3]): 0.000517 s⁻¹; kon (Active human KLK5 [3]): 3e+06 M⁻¹ s⁻¹
– | – | – | Rabbit/human antibody 10236 (chimera) (antibody, human IgG4 S228P, kappa, also called rabbit/human chimera antibody) light: AYDMTQTPASVEVAVGGTVTIKCQASQSISSWLAWYQQKPGQPPKLLIYLASTLASGVSSRFKGSGSGTQFTLTISGVECADAATYYCQQGYTNSNIINTFGGGTEVVVKRTVAAPSVFIFPPSDEQLKSGTASVVCLLNNFYPREAKVQWKVDNALQSGNSQESVTEQDSKDCTYSLSSTLTLSKADYEKHKVYACEVTHQGLSSPVTKSFNRGEC heavy: not shown | Kd (Active human KLK5 [5]): 0.168 nM; koff (Active human KLK5 [5]): 0.000451 s⁻¹; kon (Active human KLK5 [5]): 2.69e+06 M⁻¹ s⁻¹; Kd (Active human KLK5 [6]): 0.152 nM; koff (Active human KLK5 [6]): 0.000409 s⁻¹; kon (Active human KLK5 [6]): 2.7e+06 M⁻¹ s⁻¹
